The values that follow are results of earlier work, collected in article PMC7248048.

pKd: −log10 of the molar value.

The pKd is the Kd on a negative log10 scale, so that one unit is a factor of ten.

Data set [1] deals with Fibronectin (Homo sapiens) (UniProt P02751).
The target in data set [2] is Vitronectin (Homo sapiens) (UniProt P04004).
Sequence of UniProt P04004 (P04004 399-478): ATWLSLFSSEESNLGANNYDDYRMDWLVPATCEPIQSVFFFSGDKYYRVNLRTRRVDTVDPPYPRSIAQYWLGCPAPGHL

Sequence of UniProt P02751 (P02751 32-2477): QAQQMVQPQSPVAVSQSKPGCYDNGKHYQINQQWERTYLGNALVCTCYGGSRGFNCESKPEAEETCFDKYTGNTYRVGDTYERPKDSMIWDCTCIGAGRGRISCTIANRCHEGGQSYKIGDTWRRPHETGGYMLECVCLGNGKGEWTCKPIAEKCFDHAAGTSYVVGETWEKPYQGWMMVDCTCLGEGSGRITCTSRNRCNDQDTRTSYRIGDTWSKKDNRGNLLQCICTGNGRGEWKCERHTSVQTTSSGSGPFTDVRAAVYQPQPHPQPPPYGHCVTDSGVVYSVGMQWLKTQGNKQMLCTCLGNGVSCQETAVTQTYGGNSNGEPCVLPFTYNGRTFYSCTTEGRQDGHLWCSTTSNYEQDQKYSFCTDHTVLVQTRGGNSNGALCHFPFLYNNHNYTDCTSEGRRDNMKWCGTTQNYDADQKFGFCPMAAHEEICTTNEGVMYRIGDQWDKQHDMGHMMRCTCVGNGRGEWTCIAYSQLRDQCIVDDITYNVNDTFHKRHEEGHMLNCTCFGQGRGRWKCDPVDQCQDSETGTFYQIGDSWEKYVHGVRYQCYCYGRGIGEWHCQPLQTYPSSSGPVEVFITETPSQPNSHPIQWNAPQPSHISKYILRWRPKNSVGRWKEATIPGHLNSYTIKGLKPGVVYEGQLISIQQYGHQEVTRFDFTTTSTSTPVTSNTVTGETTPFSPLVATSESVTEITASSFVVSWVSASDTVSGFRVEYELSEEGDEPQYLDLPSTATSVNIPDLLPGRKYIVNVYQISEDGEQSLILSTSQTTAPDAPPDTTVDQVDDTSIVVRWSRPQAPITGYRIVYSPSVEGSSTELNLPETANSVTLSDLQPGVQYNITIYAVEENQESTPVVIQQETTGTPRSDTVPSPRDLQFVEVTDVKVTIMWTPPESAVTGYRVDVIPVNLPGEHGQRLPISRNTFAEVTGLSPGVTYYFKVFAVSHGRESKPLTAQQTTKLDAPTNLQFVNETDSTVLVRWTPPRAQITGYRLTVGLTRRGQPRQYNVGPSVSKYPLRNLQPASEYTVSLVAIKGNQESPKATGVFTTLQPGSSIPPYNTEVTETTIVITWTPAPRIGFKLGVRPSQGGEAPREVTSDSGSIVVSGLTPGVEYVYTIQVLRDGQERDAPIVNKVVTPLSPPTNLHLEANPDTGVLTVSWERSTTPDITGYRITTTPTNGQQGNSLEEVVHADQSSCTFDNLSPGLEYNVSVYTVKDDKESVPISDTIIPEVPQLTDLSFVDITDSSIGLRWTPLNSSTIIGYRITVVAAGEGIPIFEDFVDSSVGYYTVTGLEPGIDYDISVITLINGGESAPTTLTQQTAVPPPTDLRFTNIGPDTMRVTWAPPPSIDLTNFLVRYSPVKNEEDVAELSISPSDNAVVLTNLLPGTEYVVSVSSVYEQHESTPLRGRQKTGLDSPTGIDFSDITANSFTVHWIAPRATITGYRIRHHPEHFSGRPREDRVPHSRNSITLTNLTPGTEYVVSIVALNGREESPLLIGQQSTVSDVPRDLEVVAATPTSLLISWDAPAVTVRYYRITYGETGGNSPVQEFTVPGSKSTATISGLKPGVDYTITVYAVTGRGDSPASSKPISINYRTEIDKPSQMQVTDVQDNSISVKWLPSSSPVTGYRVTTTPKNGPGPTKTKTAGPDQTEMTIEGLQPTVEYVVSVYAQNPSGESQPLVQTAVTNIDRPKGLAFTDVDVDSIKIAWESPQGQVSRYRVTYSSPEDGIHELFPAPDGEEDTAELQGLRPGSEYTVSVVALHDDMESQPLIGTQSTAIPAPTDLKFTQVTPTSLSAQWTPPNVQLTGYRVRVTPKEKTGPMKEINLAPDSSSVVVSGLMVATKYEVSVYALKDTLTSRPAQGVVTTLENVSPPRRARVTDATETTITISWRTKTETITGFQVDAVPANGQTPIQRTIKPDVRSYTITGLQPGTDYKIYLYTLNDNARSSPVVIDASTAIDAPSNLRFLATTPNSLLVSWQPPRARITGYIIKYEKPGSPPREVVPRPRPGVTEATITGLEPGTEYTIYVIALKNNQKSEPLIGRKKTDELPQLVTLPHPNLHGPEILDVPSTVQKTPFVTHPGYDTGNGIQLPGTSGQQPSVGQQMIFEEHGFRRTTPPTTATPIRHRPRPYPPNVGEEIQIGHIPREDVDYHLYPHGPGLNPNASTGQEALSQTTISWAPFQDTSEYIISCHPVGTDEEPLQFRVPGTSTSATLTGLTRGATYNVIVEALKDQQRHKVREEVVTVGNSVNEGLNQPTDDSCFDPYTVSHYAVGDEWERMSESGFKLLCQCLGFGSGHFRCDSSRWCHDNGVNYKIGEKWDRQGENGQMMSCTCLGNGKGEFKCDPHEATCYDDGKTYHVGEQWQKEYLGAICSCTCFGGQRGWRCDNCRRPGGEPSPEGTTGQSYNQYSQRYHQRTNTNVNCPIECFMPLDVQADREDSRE

With “Haemophilus lipoprotein e (P4) (from UniProt P26093)”, the values for the pKd in data set [1] and in data set [2] were 7.99 and 7.78, respectively.
